Laboratory results from the supplement of paper PMC10567573.

B1: KRT18 (parent)
chain: PQVRDWSHYFKIIEDLRAQIFANT

Variants of: B1
Experiment: protein stability index of a GFP-peptide fusion (GPS, HEK-293T) (PSI 1-6); higher = more stable
Conditions: c terminus: a fixed tail appended
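Also: lentivirally expressed fusions sorted by FACS into six bins by GFP to DsRed ratio, PSI derived from sequencing read proportions per bin multiplied by bin number.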

Protein stability index of substitutions, site by site:
R4: K 2.29; I 2.32; E 2.43; T 2.13; G 2.37; V 2.09
L16: N 2.62; V 1.96; W 2.05; Y 2.26; A 2.17; G 2.32; T 2.09; M 2.08; Q 2.47
Y9: I 2.12; D 2.95; R 2.25; P 2.36; F 1.94; T 1.81; M 1.89; K 1.76
R17: V 1.89; G 2.3; P 2.15; M 2.12; Q 2.19; T 2.27; H 2.58
D5: P 1.87; V 2.56; L 2.88
D15: M 2.87; Y 3.62; A 2.47; N 2.1; P 1.4; F 1.58; Q 1.71; W 1.61; L 2.69; S 2.09; E 2.28; G 2.16
E14: W 2.79; C 2.33; Y 1.9; F 1.59; I 2.46; D 2.28; G 2; R 2.27; Q 2.64
A22: W 1.41; H 2; E 2.12; T 2.14; Y 1.64; P 2.4; Q 2.72; R 1.99
Q2: T 2.31; F 2.55; K 2.08; L 3.67; A 2.59; M 3.56; Y 2.34
W6: M 2.15; F 2.3; I 2.48; Q 2.41; V 1.92; Y 2.13; P 2.21
I13: L 2.27; C 2.3; T 2.54; V 2.87; E 2.32; W 3.46; R 2.69
Q19: H 2.09; D 2.49; M 1.89; K 2.12; G 2.34; L 1.79; E 2.62
V3: Q 2.52; K 1.79; W 1.7; P 2.46; C 2.41
N23: R 2.57; I 1.93; W 1.95; M 2.1; E 2.8; C 2.36
P1: K 2.42; Q 2.38; R 2.86; Y 2.22; L 1.73; C 2.3; T 2.25
I12: E 2.45; N 3.55; P 2.24; T 2.78; W 3.05; V 2.04; Y 2.2; R 2.55; A 2.53; K 1.85
A18: K 2.68; P 2.15; S 2.25; I 2.13; F 2.24; Q 2.02; H 1.88; R 2.44
K11: R 2.11; E 1.52; T 1.98; N 1.49; Y 1.35; A 2.1
I20: P 1.91; Q 2.09; S 2.17; C 1.86; M 2.15; D 2.59
S7: C 1.94; P 2.23; H 2.36; N 2.08; A 2.53
F21: P 2.15; Y 3.6; E 2.98; K 2.98; R 2.33; D 3.27; Q 2.46
H8: W 1.34; I 2.4; F 1.59; G 2.58; A 2.06; Q 1.83
F10: R 2.58; S 2.15; P 3.18; C 2.25; V 1.69; K 1.86; L 2.17
T24: Q 2.47; I 2.6; C 2.02; N 2.74
